The supplement of paper PMC9170038

Tested on: MS2 coat protein
Assay: apparent KD of MS2 coat protein; designed switch direction (-1 OFF switch, 1 ON switch): -1; higher = weaker reporter binding
Procedure, shortened: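 On Illumina chips, designed RNA switches with common flanks were made by stalled E. coli RNA polymerase. Titrations with SNAP-549-labelled MS2 coat protein, doubling from 0.7 or 1.5 nM to 3 µM, were done with no input, with 200 uM small-molecule ligand, or with an oligonucleotide input. Apparent KD is the median per design over clusters, from curve fits of normalised cluster fluorescence.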

[1] = Eterna round: R95, input ligand: microRNA oligo, concentration not stated
[2] = Eterna round: R95, input ligand: FMN 200 uM
[3] = Eterna round: R95, input ligand: none
[4] = input ligand: microRNA oligo, concentration not stated

Sequence | apparent KD of MS2 coat protein [1] | apparent KD of MS2 coat protein [2] | apparent KD of MS2 coat protein [3] | apparent KD of MS2 coat protein (input ligand: FMN 200 uM) | apparent KD of MS2 coat protein [4] | apparent KD of MS2 coat protein (input ligand: none)
CACGUGUAAGGAUAUGACAAUGGUAUCUUCGGAUACCAUUGUCAGAAGGUACAUGAGGAUCACCCAUGUAACAC [Ex4-3: 15] (puzzle: Exclusion 4) | 17.2 nM |  |  |  |  | 
CUCCUCAUGACGCCUAAAGACAUGAGGAUCACCCAUGUACAGGCUUUUUGUCGUCUUAUAAUAAAACCGAGGAUGCG [Edmate] (puzzle: Sensor v3, turn-off variant 1) | 45.9 nM | 19.2 nM | 20.1 nM |  |  | 
UGUCAGAUGGUAGGAUAUCCAUAUCGAGUGACCCUUUCCUAACAUGAGGAUCACCCAUGUCGGUGGGAGAAGGGCCGUAUGGUG [salish99_ExNG02_R04_033] (Eterna round: R96, puzzle: Exclusion NG 2) |  |  |  | 11.1 nM | 14.2 nM | 15.2 nM
UCAUGAUGAUAGGAUAUCGCGCGGUGAAAUGCGCGAGAAGGAUUAACAUGAGGAUCACCCAUGUUGGUCUGUUA [Eternabot (L2) Solution 69] (Eterna round: R97, puzzle: Exclusion 6) |  |  |  | 27.9 nM |  | 15.3 nM
GUGGGUUACAUGAGGAUCACCCAUGUAGAGUGGGAAGAGAGAUAGGAUAUGAUGUGAGAAUUAUAUCAGAAGGAUCGAGACUCG [AK ExNG3-2.4] (Eterna round: R96, puzzle: Exclusion NG 3) |  |  |  | 268 nM | 136 nM | 214 nM
ACGUGAUAUCUGUCGGUGGACAUGAGGAUCACCCAUGUGAGCUUUUUGCUCGUCUUAUAACCCGAUGACAGACCUUC [Anorin] (puzzle: Sensor v3, turn-off variant 1) | 266 nM | 14.2 nM | 13 nM |  |  | 
CUUAAGGCAGGAUAUGCUUUUUGUGACAUGAGGAUCACCCAUGUGAUGCAGUUUGGGUUUGCAGAAGGGCCUGAGU [JR_E5_Sub034] (puzzle: Exclusion 5) | 82.6 nM |  |  |  |  | 
ACAAGAAUUUUGCUCGUAAAGUAGGAACGCGAGAGCGGGACAUGAGGAUCACCCAUGUAGAGGCAGUUGGUGGAGAU [JR_SV3TOV2_Sub029] (puzzle: Sensor v3, turn-off variant 2) | 56 nM | 42.2 nM | 43.4 nM |  |  | 
UUUUAACAUGAGGAUCACCCAUGUGAGGAUAUCGAAAUUUAUAUUAAUAUUUAUUUAUCGAGAAGGCACAUUUU [JMF 64] (puzzle: Exclusion 1) | 120 nM |  |  |  |  | 
AGCAGACGAGGAUAUAGAUUUAAGUACAUGAGGAUCACCCAUGUACAUAUGUAUUUAGAUUUAGAAGGCGUCUGCU [E5/16-A1] (Eterna round: R97, puzzle: Exclusion 5) |  |  |  | 27.7 nM |  | 28.6 nM
GACUGGACAGGAUAUGUUCUUGAGCACUUGAGGAUCACCCAAGUCAUCAAGAACUCAGGCACAGAAGGGUUUAUGG [salish99_ex5_r4_010] (Eterna round: R97, puzzle: Exclusion 5) |  |  |  | 23.3 nM |  | 12.1 nM
AGUUGGCAAGGAUAUACAUGAGGAUCACCCAUGUGAAAUUAUAGUGAGGAAAUGAAAAGUAGAAGGUGCUGACA [Mod of Mat 3 - Jieux - Exclusion 3] (Eterna round: R97, puzzle: Exclusion 3) |  |  |  | 114 nM |  | 30.9 nM
UUUUUAUAACAAGGAUAUACUAAACAUGAGGAUCACCCAUGUAAUAUUAUGAGUGAGAGAGAUAAGUAGAAGGUGUAUUAUUUU [JMF solution 3] (Eterna round: R96, puzzle: Exclusion NG 2) |  |  |  |  | 99.6 nM | 
CGUGUACGAGGAUAUAGAUUAGGUGACAUGAGGAUCACCCAUGUGAUCAAUCUAUUUGGUUUAGAAGGUGUACAUG [JR_Ex5_Sub052] (Eterna round: R97, puzzle: Exclusion 5) |  |  |  | 15 nM |  | 14 nM
AAAAGAAUAGGAUAUACAUGAGGAUCACCCAUGUGAGGGCACGGCCGGCGCGGGCCCGGUAGAAGGAUUCAAAA [Exc;s3-X] (puzzle: Exclusion 3) | 22.5 nM | 23.1 nM | 25.6 nM |  |  | 
UCGGCGCGAGGAUAUACGUUUGCUUUUUUGGGUCGUUGCGUACAUGAGGAUCACCCAUGUAGAAGGCGCGCCGC [Apr-15 SS2-25] (puzzle: Exclusion 2) | 24.1 nM |  |  |  |  | 

Sequence | apparent KD of MS2 coat protein [1] | apparent KD of MS2 coat protein [2] | apparent KD of MS2 coat protein [3] | apparent KD of MS2 coat protein (input ligand: FMN 200 uM) | apparent KD of MS2 coat protein [4] | apparent KD of MS2 coat protein (input ligand: none)
CCCGGGCGAGGAUAUACAUGAGGAUCACCCAUGUUGGGCUAGUUGGUGGCUCCUCGCGGUAGAAGGCGCACGCG [Edna] (puzzle: Exclusion 3) | 64.5 nM | 123 nM | 74.6 nM |  |  | 
CUGGUCCGAGGAUAUAUUAUGUGAAACAUGAGGAUCACCCAUGUAAUAUGAUGGAUGUAAAUAGAAGGCGGACUAG [JL-ex5-3.07] (puzzle: Exclusion 5) | 37.3 nM | 38.2 nM | 47.2 nM |  |  | 
ACCUCACAUGAGGAUCACCCAUGUCAGGAUAUGUACCUGGUCUAGUCAAAGACCAGAAGCAGAAGGGACUGCGG [Ria] (puzzle: Exclusion 1) | 87.8 nM | 29.7 nM | 106 nM |  |  | 
UAUUUGUAAGGAUAUCUCGUCAUGGAGGAAACUCCAUGACGAGAGAAGGUACAUGAGGAUCACCCAUGUCUAUU [Mod of Fisker 23 - Jieux - Exclusion 4] (Eterna round: R97, puzzle: Exclusion 4) |  |  |  | 26.2 nM |  | 18.6 nM
CGAUGUCUUCGGACAUCGAACAUGAGGAUCACCCAUGUAAUGAGCAGAUCUUCAUGCAAGCUUUUUGCUCGUCUUAU [Sensor v3 - turn-off variant 1 - 44] (puzzle: Sensor v3, turn-off variant 1) | 11.6 nM | 215 nM | 213 nM |  |  | 
GAGUUAGCGUGAGGAAUAUACAUGAGGAUCACCCAUGUUGGCUAAUAUAUUGCUCGUCUUAUAACAACAAUUAACUG [Mod-hoo-honey#a] (Eterna round: R97, puzzle: Sensor, turn-off variant 1) |  |  |  | 16 nM |  | 16.4 nM
CUUAUGUGAGGAUAUCAGUAGUAAUACAAUAGUAUUACUACUGAGAAGGCACAUGAGGAUCACCCAUGUUCCUU [Exclusion 4 - Mod Omei Ex4 344 mod v.1] (puzzle: Exclusion 4) | 27.5 nM |  |  |  |  | 
CUUUUGUGAGGAUAUCAGUAGUUAAAUAAUAAAAUUACUACUGAGAAGGCACAUGAGGAUCACCCAUGUUCCUC [Mat - Exclusion 4 - Mod of Salish - D70] (puzzle: Exclusion 4) | 35.5 nM |  |  |  |  | 
GUCGUGCGGCUUUGCUGUACGAGUACAUGAGGAUCACCCAUGUAGGAUAUGGUUCGCUUUGCGUGCCAGAAGGGCGUGCGUUGU [Excl-NG3-LRO13] (Eterna round: R96, puzzle: Exclusion NG 3) |  |  |  |  | 18.9 nM | 
AGUAGAUCUACGCUUGCGUGGAUCUGCAAAGCAGGUGUUACAUGAGGAUCACCCAUGUCCUCAUUUGCUCGUCUUAG [JL turnoff v2 99.08] (puzzle: Sensor v3, turn-off variant 2) | 563 nM | 71.8 nM | 65.1 nM |  |  | 
UUAGAAAUGUUAGGAUAUUAAUAUUUUUUUAGUAUGAUCUACAUGAGGAUCACCCAUGUUAAAAUUAAGAAGGAACAUUUUAUU [JR_ExcNG2_Sub098] (Eterna round: R96, puzzle: Exclusion NG 2) |  |  |  |  | 59.7 nM | 
GAAAAGUAAGGAUAUGUCUCCAGUGAGGAAACUCACUGGAGACAGAAGGUACAUGAGGAUCACCCAUGUUCCUC [ExDelusion 5 - Jieux - Exclusion 4] (Eterna round: R97, puzzle: Exclusion 4) |  |  |  | 289 nM |  | 42.7 nM
GAUUUAGAGCAGGAUAUCAUAGAAAUGUAUGAAUGAGAAGGGCUCACAUGAGGAUCACCCAUGUGGUCCUAGAU [JL Dibiri mod 20] (puzzle: Exclusion 6) | 23.5 nM | 144 nM | 20.3 nM |  |  | 
UCGUUCCGUGUAGGAUAUUGGCCUGCUCUGGGUCGAGAAGGACAUGAGGAUCACCCAUGUAUGUUAUUAUCACGCGUGGCGCAU [Design 81] (Eterna round: R96, puzzle: Exclusion NG 1) |  |  |  | 61.7 nM | 22.9 nM | 31.8 nM
GCACGCAGUGUUAGGAUAUUAAUGGCACCGCAACGUAAGAAGGAACAUGAGGAUCACCCAUGUGUGCUAGAGAA [Eternabot (Original) Solution 14] (Eterna round: R97, puzzle: Brourd's mod of Exclusion 4) |  |  |  | 30.1 nM |  | 29.5 nM
CCUCUACAUGAGGAUCACCCAUGUCAGGAUAUCGUGUGUUUUUUUUCGGCCGCGCGUGCGAGAAGGGACGUCUU (Eterna round: R96, puzzle: Exclusion 1) |  |  |  | 35.2 nM | 26 nM | 36.2 nM
